Source: PMC9808001 (2022)

Target: RAB1A (Homo sapiens (Human), UniProt P62820)
Experiment: BLI

RAB1A, sequence (P62820 6-177): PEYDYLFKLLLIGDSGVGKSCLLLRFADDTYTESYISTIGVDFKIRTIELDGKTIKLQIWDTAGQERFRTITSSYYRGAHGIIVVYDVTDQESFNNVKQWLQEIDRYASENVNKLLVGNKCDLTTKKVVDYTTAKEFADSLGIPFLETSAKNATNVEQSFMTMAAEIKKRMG

Kd: > 500 nM
B1: WDR44 (protein)
chain: VMGPQRPRSNSGRELTDEEILASVMIKNLDTGEEIPLSLAEEKLPTGINPLTLHIM
